The target of assay [1] is anti-CD20 IgG1 L234S/L235T/G236R (human). The assay is described as follows: SPR; antibody captured by biotin-labelled anti-human κ light chain on streptavidin CM5; soluble Fcγ receptor injected at one concentration ([…] to 18 μM); HBS-EP+ pH 7.4, 25°C; Biacore 8K.
For assay [2] the target is unchanged. The assay is described as above. The source holds these as a separate data set.
Assay [3] deals with human FcγRIIIa (CD16a) V158 allele, histidine-tagged recombinant (human) (UniProt P08637). Description: SPR; His-tagged Fc receptor captured by anti-histidine antibody immobilised on CM5; antibody injected at 100 μg/mL for 1 min; response about 5 s before end of injection, blank subtracted; 25°C, HBS-EP+; Biacore T200.
In assay [4] the target is human FcγRIIIa (CD16a) F158 allele, histidine-tagged recombinant (human) (UniProt P08637). Described as above.
For assay [5], the target named is rat FcγRI (CD64), histidine-tagged recombinant (rat). Described as above.
The mark [6] stands for this setting: remark: other sources report otherwise.

Among the data in PMC8691596 are response and mean response values, retold here.

Read-outs that look alike come from different tables or passages of the source.

B1: cynomolgus monkey FcγRIII extracellular domain, C-terminal hexa-His (receptor)
chain: GMRAEDLPKAVVFLEPQWYRVLEKDRVTLKCQGAYSPEDNSTRWFHNESLISSQTSSYFIAAARVNNSGEYRCQTSLSTLSDPVQLEVHIGWLLLQAPRWVFKEEESIHLRCHSWKNTLLHKVTYLQNGKGRKYFHQNSDFYIPKATLKDSGSYFCRGLIGSKNVSSETVNITITQDLAVSSISSFFPPGYQ
B1: the response in assay [1] (setting [6]) is less than 1 RU.

B2: mouse FcγRIIb extracellular domain, C-terminal hexa-His (receptor)
chain: THDLPKAVVKLEPPWIQVLKEDTVTLTCEGTHNPGNSSTQWFHNGRSIRSQVQASYTFKATVNDSGEYRCQMEQTRLSDPVDLGVISDWLLLQTPQLVFLEGETITLRCHSWRNKLLNRISFFHNEKSVRYHHYSSNFSIPKANHSHSGDYYCKGSLGRTLHQSKPVTITVQGPKSSRSLP
Take B2: the response in assay [2] is less than 1 RU.

B3: human FcγRIIa H131 extracellular domain, C-terminal hexa-His (independently-made panel), P12318 34-217 (receptor)
chain: QAAAPPKAVLKLEPPWINVLQEDSVTLTCQGARSPESDSIQWFHNGNLIPTHTQPSYRFKANNNDSGEYTCQTGQTSLSDPVHLTVLSEWLVLQTPHLEFQEGETIMLRCHSWKDKPLVKVTFFQNGKSQKFSHLDPTFSIPQANHSHSGDYHCTGNIGYTLFSSKPVTITVQVPSMGSSSPMG
Molecule B3 displayed a response in assay [1] (setting [6]) of less than 1 RU.

B4: human FcγRIIa R131 extracellular domain, C-terminal hexa-His (independently-made panel), P12318 34-217 (receptor)
chain: QAAAPPKAVLKLEPPWINVLQEDSVTLTCQGARSPESDSIQWFHNGNLIPTHTQPSYRFKANNNDSGEYTCQTGQTSLSDPVHLTVLSEWLVLQTPHLEFQEGETIMLRCHSWKDKPLVKVTFFQNGKSQKFSRLDPTFSIPQANHSHSGDYHCTGNIGYTLFSSKPVTITVQVPSMGSSSPMG
modifications: not checked
Molecule B4 showed a response in assay [1] of less than 1 RU.

B5: anti-CD52 IgG1 L234A/L235A (LALA) (antibody, V domains shown)
VH: QVQLQESGPGLVRPSQTLSLTCTVSGFTFTDFYMNWVRQPPGRGLEWIGFIRDKAKGYTTEYNPSVKGRVTMLVDTSKNQFSLRLSSVTAADTAVYYCAREGHTAAPFDYWGQGSLVTVSS
VL: DIQMTQSPSSLSASVGDRVTITCKASQNIDKYLNWYQQKPGKAPKLLIYNTNNLQTGVPSRFSGSGSGTDFTFTISSLQPEDIATYYCLQHISRPRTFGQGTKLEIK
B5: the mean response in assay [3] was determined as 63.2 RU; in assay [4], 17 RU.

B6: anti-CD52 IgG1 N297Q (aglycosyl) (antibody, V domains shown)
VH: QVQLQESGPGLVRPSQTLSLTCTVSGFTFTDFYMNWVRQPPGRGLEWIGFIRDKAKGYTTEYNPSVKGRVTMLVDTSKNQFSLRLSSVTAADTAVYYCAREGHTAAPFDYWGQGSLVTVSS
VL: DIQMTQSPSSLSASVGDRVTITCKASQNIDKYLNWYQQKPGKAPKLLIYNTNNLQTGVPSRFSGSGSGTDFTFTISSLQPEDIATYYCLQHISRPRTFGQGTKLEIK
As to B6, in assay [5], the mean response came to 488 RU.

B7: mouse FcγRI extracellular domain, C-terminal hexa-His (independently-made panel) (receptor)
chain: EVVNATKAVITLQPPWVSIFQKENVTLWCEGPHLPGDSSTQWFINGTAVQISTPSYSIPEASFQDSGEYRCQIGSSMPSDPVQLQIHNDWLLLQASRRVLTEGEPLALRCHGWKNKLVYNVVFYRNGKSFQFSSDSEVAILKTNLSHSGIYHCSGTGRHRYTSAGVSITVKELFTTPVLRASVSSPFPEGSLVTLNCETNLLLQRPGLQLHFSFYVGSKILEYRNTSSEYHIARAEREDAGFYWCEVATEDSSVLKRSPELELQVLGPQSSAP
B7: the response in assay [2] is less than 1 RU.

B8: mouse FcγRIII extracellular domain, C-terminal hexa-His (receptor)
chain: ALPKAVVKLDPPWIQVLKEDMVTLMCEGTHNPGNSSTQWFHNGRSIRSQVQASYTFKATVNDSGEYRCQMEQTRLSDPVDLGVISDWLLLQTPQRVFLEGETITLRCHSWRNKLLNRISFFHNEKSVRYHHYKSNFSIPKANHSHSGDYYCKGSLGSTQHQSKPVTITVQDPATTSSISLVWYHT
With B8, the response in assay [2] was less than 1 RU.
